Measured values as given in article doi:10.1101/2021.05.19.444834.

Key:
[1] = target: unmodified C62A ThfA (Thermobifida fusca); test: BLI
[2] = target: doubly dehydrated C62A ThfA (Thermobifida fusca); test: BLI

Substance: maltose binding protein (MBP) fusion to ThfB (enzyme)
- Kd [1]: 28 nM
- Kd [2]: 18 nM
